Assay: soluble on expression in E. coli; label from the status in PepcDB or PDB records

Which “soluble on expression in E. coli” value does the source give for “MGSDKIHHHHHHVAETTTEQTIQKASSAIHYNAFSHNDYWRERPLLDALSFRFNCVEADLWLIDDELYVSHDRPEPNPAITFENLYLKPLVARIQANGGKVYPGSDRPFYLMVDCKAQGEEMYKLLKKQMEPYKEYFCSVDNGEYKEGAVLFFLSGDRPKNSLPKENSRFTFLDGQIKDLGQGIPASLAPVISDNYSDFFTWKGEGEMPADQLQKMREIIRKVHDEGKLFRWWGAPDTEQFKRFFIKEGVDLVGADDLNGLYNVLNER” here?
Its value is “not soluble”.

Which “soluble on expression in E. coli” value does the source give for “MAHHHHHHMGSCCAKSDTSVDIDDSGRGVERDTEDDNNVYILQYQSRGEVLKMLELEPTPHEASVMTQSPSLPTDGPAAEECAEAELSDPLSCSSTTIVTVRSERRAADRFSANSLTWTLPEVSATTVSTRFDHARTTSFMGSDDDFSSVEWSANSRKDRRLMLLRDRDRAAQRDMVMNEMDQRRFIAEHANRAHRAILVTYIRNRLEIERRVSYEEFLVERNAFLLHELEAREPLVRRTVELQAHSELLNKMQQQRLLRNRGK” here?
The value was “soluble”.

For “LKDVLNILLMDEISKLKDFLSNLDYIKPKVNIEEEIIEIRKEDIINALKLFKGKYEIEVDKIPKAVYVYLVKKNILFLYPQRGTLKPQSFLVWNAIKRVL”, which “soluble on expression in E. coli” value is on record?
The value was “soluble”.

Which “soluble on expression in E. coli” value does the source give for “MSQTRTHEQVLAKEPWYHGLLPREDMKQLLTQRGDFLVRFTDPKVGEPRKFVLSVYVGVIEDIRHYVIREHNNKFAVDKKWFSSIADLLNYYHRSKEPVAGGPETVIIRPIGREPWEKQHSDVTLIKKLGEGAFGEVQLGEIRIGNTVKKAAIKLAKLESLTKEQIKEIMHEARLMRKFKHPNVVTFYGVAAGQEPLMVIMELADNGALDSYLKKNIGSLPISKKHTMVLQAGLGLEYLHSLQIIHRDIASRNCLYGNGQVKISDFGLSREGYSYRMNPHKKVPIRWLAPEVPRTGFYTPKTDVFAYGVMCWEVYHDGIEPYPGMKVAEVLPRVQNGYRMPFEANVPPAIVRFITYRICAGAEEERVTMSEAVRELLTLEGFDQAPGSNSYFELPDHIPMENIEQPKKIQVSNILPYMSKPVAPPFEPERQEKTQEMRKSMSNSAEEGVKKNRRPVRTRIRNGNSPSPGFKSQSRSAAENQNKSNLKAVQKKKNNKQSSSISGDAPSTFSVLGVFGKKKNTADRSDLKKLEEF” here?
The value was “not soluble”.

With “MRLDLSAKFRQVLGLAKDHASIGRAIVQNYNEKAFFDIEVAVVRATSHDDCPVDDKTMHEILFLVSNTPGSIPFLAEQISRRLAKTRDCLVAGKTLLLFHRLLRGSSRSIEQQLHIAHTSGHLQIGCSWFMMSLDSRSFVFLQNYVAYLQERVGWIINQAGKLEPVMSGGTKFSRYKEKSMDLVFHILPKCQEFIAQVLKCSPVDAWPIDNLVQAATGNILKESFQVYMTYSDGMTALVSMLFDLSRPARDLACGMLRKASQQIQDLRILYDKCRGFAGMKSLDYPSVQAISMDHIVALEECSSYGGKRGFSLSTNLRDAITCNELKQEQHSASFSSTSPFSLPVETKISMVWVVFDNEDGEESDKQTEKAYER” as the sequence, how does the “soluble on expression in E. coli” value read?
The value was “soluble”.

Which “soluble on expression in E. coli” value does the source give for “MKENFQIHIWLGLLLCLLGMSCSDDTPAKGDDPGNGNTELEVNEWIESVMRSDYLWNNDIPAQNKLDFSADPQTFFRSMLSLKDGKTRNGKHLYYYSYMEKNKDYKARTSIDADDTYGMEFTLFNVVNDSNQPLGYYYARILYVLPNSPASSAGLERGDWIVGVKGRNNINSDNYGILLNGDRTQWLVKRGDTEVRTIDIEASRAVEDNPLFYHNVYTRGDKKIGYLVYNHFTSGPNGYSDRTYDEEMKKIFAGFQAQGVNEFVLDLRYNGGGYENSANMLAGLLIPEASRKKVFAVFSDNKGQSYSNDFCVETKGTAGYLKLNSNRIYILTSQSTASSSEVVINSLNPFMDVILIGELTEGKNVGMEMQKNDKYEWIYWPITLRVTNAVNDDYSAGFKPDIEWNEYDLTQNPTDALLPLGDPDEFMLGKAISLITGINRSARSMNTLGIFSKCL” here?
The value was “not soluble”.

With “MGSDKIHHHHHHMRVMAFVQARMGSTRLPGKSLMPVWNGMGVLEMTLRRALRARTLSGVVLCTSTDPACDALETLASGLGVQAFRGPEDDVLTRYALATERFEPDAVVRICADSPLVCPEGIDALVAFFRDEGLDYAAHAMDGTGLPDGLGCEVFTAAALAQAHAEATAPEDREHVSLFIRHRPERFRQATLAADAALRAPGVSLDVDTQDDLDALRRFIMALPPSEGPFWSADAIAPLARGLHTPPQGTSMDIASDDYHDFFIRDGKLIGEFEQMYRKSRHAPWHQDEACDKWFNKVSAALVGHALDDPSVRTVFEVGSGLGYFLSQFAGEGRTLTGTDVSATAVEKARALFPGISFEVDDIRFEGRRGPYDLCLMQAVCWCIFPHMDDVVRNVTATVRPGGYLFLGECFQPLDGPFAGKDVIPTPDALIGHFSHAFDTVADVRVTRGEMGGGPIIYWLGRRRG” as the sequence, how does the “soluble on expression in E. coli” value read?
The value was “not soluble”.

For “GHMVDLEQEFALGGRVLAFHGPLMYEAKILKIWDPSSKMYTSIPNDKPGGSSQATKEIKPQKLGEDESIPEEIINGKSFFIHYQGWKSSWDEWVGYDRIRAYNEENIAMKKRLANEAGSTGSAPATGGVKKPHRYR”, which “soluble on expression in E. coli” value is on record?
The value was “soluble”.

With “MGGSALNQGVLEGDDAPGQSLYERLSQRMLDISGDRGVLKDVIREGAGDLVAPDASVLVKYYGYLEHLDRPFDSNYFRKTPRLMKLGEDITLWGMELGLLSMQRGELARCFVLGKLLDSQGPSLHLYLRAS” as the sequence, how does the “soluble on expression in E. coli” value read?
The value was “not soluble”.

Which “soluble on expression in E. coli” value does the source give for “PFINIKLVPENGGPTNEQKQQLIEGVSDLMVKVLNKNKASIVVIIDEVDSNNYGLGGESVHHLRQKN” here?
Its value is “soluble”.

For “MATNESLKEQLAKRNGRKPAANGNGEPITLKALLASPKVKKRFEEVLDKRAPQFMTSIINLYSNDSGLQKCDPMTVISSAMVAASLDLPIDKNLGYAWIVPYYDRKTKSYRAQFQLGYKGYIQLALRSGQYRYINAIPVRKGELIKWDPLTEEIEIDFEARESDEVIGYAAFFELLNGFRKTVYWRKEDVEAHRQKYSKSGFGWENDWDAMALKTVIKSLLSRWGILSVEMQKAVIEDDEERLNPPADNVVEIEPEKPEVPENDEPVFELPLDVEVEVPFEEDEKDGDDQEG”, which “soluble on expression in E. coli” value is on record?
Its value is “not soluble”.

Which “soluble on expression in E. coli” value does the source give for “GSASKICQFKLVLLGESAVGKSSLVLRFVKGQFHEYQESTIGAAFLTQSVCLDDTTVKFEIWDTAGQERYHSLAPMYYRGAQAAIVVYDITNQETFARAKTWVKELQRQASPSIVIALAGNKADLANKRMVEYEEAQAYADDNSLLFMETSAKTAMNVNDLFLAIAKKLPKSEPQNLGG” here?
Its value is “soluble”.

With “MTRMKYLVAAATLSLFLAGCSGSKEEVPDNPPNEIYATAQQKLQDGNWKQAITQLEALDNRYPFGPYSQQVQLDLIYAYYKNADLPLAQAAIDRFMRLNPTHPNIDYVMYMRGLTNMALDDSALQGFFGVDRSDRDPQHARAAFNDFSKLVRSYPNSQYTTDATKRLVFLKDRLAKYEYSVAEYYTARGAWVAVVNRVEGMLRNYPDTQATRDALPLMENAYRQMQLNAQADKVAKIIAANSKNT” as the sequence, how does the “soluble on expression in E. coli” value read?
The value was “not soluble”.

With “MPLSQEESTLIERATATINSIPISEDYSVASAALSSDGRIFTGVNVYHFTGGPCAELVVLGTAAAAAAGNLTCIVAIGNENRGILSPCGRCRQVLLDLHPGIKAIVKDSDGQPTAVGIRELLPSGYVWEG” as the sequence, how does the “soluble on expression in E. coli” value read?
The value was “soluble”.

Which “soluble on expression in E. coli” value does the source give for “YTEEFDPSKYGMADSYDEQGNYIFPEGFDPETNEWLEGFDEQRQAWEARYAESERRFQLHTVQIEKNRVAAAEAAAAGEATNYSSESAEAAPAAANTEAEGGSLASDEQLAALREKLAGN” here?
Its value is “not soluble”.

Which “soluble on expression in E. coli” value does the source give for “MVAEITAPKSMGKVLGYNFSKVTAGNASVILTSSMSVDANGETNFERALTDMDMRIPSGIRTKKTVFHCSLNPHPDDRLTTEQLQDIAREYMEKMGYGKQPYIVFKHNDIAREHIHIVSLRVDSYGKKLPYKFEARRSKRITDELERKYGLIPSGNRRSRHETHAENVLKTADVKQGDVRRQIAAVVRAVLKRYAFRSLGEMNLLLARYHIVAEEVRKEYKGKRYDGLVYAITDDAGEKRMIPLHAGKIGRGTGYAAVVRHFEKSKALIKEKAPMLRNAIIEVMQSSPDKERFSEEMKKRGIDVHIRQNEQGRIYGITFISDEAGIAANGSRLGKGYSAHVFNDYFLGGENPFLDYRRQEIRELPTVRSAPEMLPEAETGDDCYDEPVRTDESGIVVHGIDYKELAFQRKLRNRRHKQDITGKRRT” here?
Its value is “not soluble”.

With “MIKIKENRMSQSNVIIVHGAYGHPFENWFNWMKTELESLGIECFVPQLPTPDGQELKNWLHVFNSTVSPMITHDTILIGHSLGSAFLLRWLEQANQSVFSTILAGSFIGTVGIQKFDKINESFFENGFDWHSIINKSKQFFCYHGSNDPYISRSNFNFIANNLQARKIIISQGGHLNEAAGFSSFPQLLIQLKSLLGINYGKFI” as the sequence, how does the “soluble on expression in E. coli” value read?
Its value is “not soluble”.

Reference: the DeepSol protein solubility set
